Laboratory results published in PMC9284671 (Structure (London, England : 1993), 2022).

Tests used:
Test in all cases: ELISA
[1] = molecular target: SHC014 S2P (pre-fusion-stabilized soluble spike) (Bat SARS-like coronavirus RsSHC014, UniProt U5WLK5, stabilised)
[2] = molecular target: MERS-CoV S2P (pre-fusion-stabilized soluble spike) (MERS-CoV EMC/2012 (GenBank AFS88936), UniProt K0BRG7, stabilised)
[3] = molecular target: WIV1 S2P (pre-fusion-stabilized soluble spike) (Bat SARS-like coronavirus WIV1, UniProt U5WI05, stabilised)
[4] = molecular target: SARS-CoV S2P (pre-fusion-stabilized soluble spike) (SARS-CoV Urbani, UniProt P59594, stabilised)
[5] = molecular target: RaTG13 S2P (pre-fusion-stabilized soluble spike) (Bat coronavirus RaTG13 (GenBank …, UniProt A0ABF7PLN6, stabilised))

Measured: binding result

B1: WS6 (monoclonal antibody, IgG) (antibody, V domains shown)
VH: EVQFQQSGTVLARPGASVKMSCKASGYTFTNYWIHWVKQRPGQGLEYIGGTYPGNGDTTYNQKFKGKAKVTAVTPTSTAYMDLSSLTNEDSAVYYCTRTGSYFDYWGQGTTLTVSS
VL: QIVLTQSPAIMSASPGEKVTISCSATSSVSYIYWYQQRPGSSPKPWIYRTSNLASGVPVRFSGSGSGTSYSLTISNMEAEDAATYYCQQYQSYPPTFGAGTKLELK
binds: all assays above
